Values of other authors as cited in patent US20090068143A1, “ORALLY EFFECTIVE C[…]” (priority 2005, published 2009).

Conditions: in vivo; cited from earlier work

B1: IFN-β-1b: beta interferon product to which patients develop NAbs (protein, UniProt P01574 22-187, looked up, variant C17S)
Interferon beta: MSYNLLGFLQRSSNFQSQKLLWQLNGRLEYCLKDRMNFDIPEEIKQLQQFQKEDAALTIYEMLQNIFAIFRQDSSSTGWNETIVENLLANVYHQINHLKTVLEEKLEKEDFTRGKLMSSLHLKRYYGRILHYLKAKEYSHCAWTIVRVEILRNFYFINRLTGYLRN
In the case of B1, the “patients developing neutralizing antibodies (NAbs)” value is listed as “Twenty-eight to forty-seven”.
